Holding throughout (assay): cell-based or functional assay
Assay [1] has as its target HIV-2 envelope HIV-2-ATM88 (HIV-2).
For assay [2], the target named is HIV-1 envelope NL4-3 (HIV-1).
Assay [3] addresses HIV-1 envelope ZM106.9 (HIV-1).
Assay [4] addresses a different panel of HIV-1 envelopes from bNAb1-resistant strains.
In assay [5] the target is HIV-1 envelope CAP45.2.00.G3 (HIV-1).
For assay [6], the target named is HIV-1 envelope X2088.C9 (HIV-1).
In assay [7] the target is HIV-2 envelope HIV-2-HCC-01 (HIV-2).
Assay [8] deals with HIV-1 envelope 42368 (HIV-1).
The target in assay [9] is HIV-1 envelope of laboratory strain NL4-3 (HIV-1).
The target in assay [10] is HIV-1 envelope CC1/85 (HIV-1).
Assay [11] has as its target HIV-1 envelope T278.50 (HIV-1).
In assay [12] the target is HIV-1 envelope 3637_V5_C3 (HIV-1).
The target in assay [13] is HIV-1 envelope Q461_E2 (HIV-1).
Assay [14] deals with HIV-1 envelope 3468_V1_C12 (HIV-1).
Assay [15] deals with HIV-1 envelope 3326_V4_C3 (HIV-1).
For assay [16], the target named is HIV-1 envelope X2278 (HIV-1).
In assay [17] the target is HIV-1 envelope TRO11 (HIV-1).
Assay [18] has as its target HIV-1 envelope CNE55 (HIV-1).
Assay [19] addresses HIV-1 envelope JR-CSF (HIV-1).
Assay [20] deals with HIV-1 envelope X1632_S2_B10 (HIV-1).
Assay [21] addresses HIV-1 envelope JRFL (HIV-1).
For assay [22], the target named is HIV-1 envelope 25710 (HIV-1).
In assay [23] the target is HIV-1 envelope CE1176 (HIV-1).
For assay [24], the target named is HIV-1 envelope CNE8 (HIV-1).
For assay [25], the target named is HIV-1 envelope 246F3 (HIV-1).
The target in assay [26] is HIV-1 envelope 398F1 (HIV-1).
Assay [27] concerns the target HIV-1 envelope CE0217 (HIV-1).
Assay [28] has as its target HIV-1 envelope CH119 (HIV-1).
For assay [29], the target named is HIV-1 envelope BJOX2000 (HIV-1).

B1: bNAb1 (antibody, V domains shown)
VH: QPQLQESGPTLVEASETLSLTCAVSGDSTAACNSFWGWVRQPPGKGLEWVGSLSHCASYWNRGWTYHNPSLKSRLTLALDTPKNLVFLKLNSVTAADTATYYCARFGGEVLRYTDWPKPAWVDLWGRGTLVTVSS
VL: QSALTQPPSASGSPGQSITISCTGTSNNFVSWYQQHAGKAPKLVIYDVNKRPSGVPDRFSGSKSGNTASLTVSGLQTDDEAVYYCGSLVGNWDVIFGGGTKLTVLG
Consider B1, for which the IC50, PSV assay in assay [1] and in assay [7] was more than 500 nM each time. Further, the IC50 (nM), PSV assay (ACTOne cells) in assay [2] is 131 nM; in assay [3] it was 0.07 nM; in assay [5], more than 500 nM; in assay [6] it was 402 nM; in [8], more than 500 nM; in assay [10] it was 0.03 nM. Besides, the IC50 (nM), PSV assay (ACTOne cells) in assay [11] turned out to be 0.17 nM. The same molecule gave a geometric mean IC50, PSV assay (ACTOne), FIG. 4B in assay [4] of more than 10 nM. In assay [9], this molecule had an EC50 (replicating virus assay) of more than 500 nM.

B2: bNAb23 (antibody, V domains shown)
VH: QVQLLESGPGLVRPSETLTLTCSVFNSRVSGYYYSWIRQPPGRGLEWIASTHFSLRPSRNPSLLSRVTTSIDTERYQVFLNMRSVTAADTAVYFCARGDASGWRADYFPHWGQGTLVVVSS
VL: QSVLTQPPSASGSPGQSVTISCTGTSSDIGASDYVSWYQQYPGEAPKVIIYDVTKRPSGVPDRFSGSKSGTTASLTVSGLQAEDEADYYCSSDAGRHTLLFGGGTKVTVLG
In the case of B2, the IC50, PSV assay in assay [12] is more than 500 nM; in assay [3], 17.4 nM; in assay [6] it was more than 500 nM; in [13], more than 500 nM; in [8], more than 500 nM; in assay [14], more than 500 nM. This molecule also displayed an IC50, PSV assay in assay [15] of 15.3 nM.

B3: bNAb15 (antibody, V domains shown)
VH: EVHLEESGPGLVRPSETLSLTCTASGGSIRGGEWGDSDYHWGWVRHSPEKGLEWIGSIHWRGTTHYNAPFRGRGRLSIDLSRNQFSLRLTSVTAEDTAVYYCVKHKYHDIVMVVPIAGWFDPWGQGLQVTVSS
VL: EIMMTQSPAILSVSPGDRATLSCRASQSVKNNLAWYQKRPGQAPRLLIFDTSSRASGIPARFSGGGSGTEFTLTVNSMQSEDFATYYCQQYEEWPRTFGQGTKVEIKR
Take B3: the IC50, PSV assay in [12] is 5 nM; in assay [3], 1.34 nM; in [6], 2.58 nM; in assay [13], more than 500 nM; in [8], more than 500 nM; in [14], more than 500 nM. Further, in assay [15], the IC50, PSV assay is more than 500 nM.

B4: bNAb16 (antibody, V domains shown)
VH: EVQLVESGGGLVKPGGSLRLTCVASGFTFSDVWLNWVRQAPGKGLEWVGRIKSRTDGGTTDYAASVKGRFTISRDDSKNTLYLQMNSLKTEDTAVYSCTTDGFIMIRGVSEDYYYYYMDVWGKGTTVTVSS
VL: QSVLTQPPSVSAAPGQKVTISCSGSSSNIGNNYVLWYQQFPGTAPKLLIYGNNKRPSGIPDRFSGSKSGTSATLGITGLQTGDEADYFCATWDSGLSADWVFGGGTKLTVLG
On to B4, for which the IC50, PSV assay was more than 500 nM in [12]; more than 500 nM in assay [3]; 289 nM in assay [6]; more than 500 nM in assay [13]; more than 500 nM in [8]; more than 500 nM in [14]. Further, the IC50, PSV assay in assay [15] is more than 500 nM.

B5: bNAb3 (antibody, V domains shown)
VH: QVQLRESGPGLVKPSETLSLSCTVSNDSRPSDHSWTWVRQSPGKALEWIGDIHYNGATTYNPSLRSRVRIELDQSIPRFSLKMTSMTAADTGMYYCARNAIRIYGVVALGEWFHYGMDVWGQGTAVTVSS
VL: SSELTQPPSVSVSPGQTARITCSGAPLTSRFTYWYRQKPGQAPVLIISRSSQRSSGWSGRFSASWSGTTVTLTIRGVQADDEADYYCQSSDTSDSYKMFGGGTKLTVLG
As to B5, the IC50 (nM), PSV assay (ACTOne cells) in [2] was 0.15 nM; in assay [3] it was 0.03 nM; in assay [5], more than 500 nM; in [6], 0.03 nM; in assay [8] it was more than 500 nM; in assay [10], 38.3 nM. The same molecule registered an IC50 (nM), PSV assay (ACTOne cells) in assay [11] of 0.01 nM.

B6: bNAb19 (antibody, V domains shown)
VH: EVQLVESGGGLVKAGGSLILSCGVSNFRISAHTMNWVRRVPGGGLEWVASISTSSTYRDYADAVKGRFTVSRDDLEDFVYLQMHKMRVEDTAIYYCARKGSDRLSDNDPFDAWGPGTVVTVSP
VL: DVVMTQSPSTLSASVGDTITITCRASQSIETWLAWYQQKPGKAPKLLIYKASTLKTGVPSRFSGSGSGTEFTLTISGLQFDDFATYHCQHYAGYSATFGQGTRVEIKR
B6: the IC50, PSV assay in [12], in [3], in assay [6], in assay [13], in assay [8] and in [14] was more than 300 nM each time. Moreover, the IC50, PSV assay in assay [15] is more than 300 nM.

B7: bNAb18 (antibody, V domains shown)
VH: QVQLVQSGAEVRKPGSSVTISCKPVGGTFTNFAIHWVRQAPGQGLEWVGGRVPVVGIYKYGKKFHDRLRLYEDDPMKTVFLELRSLTSDDTGVYYCTRWRGCGMCPYDTSSYYNDASDVWGPGTKVIVSA
VL: EIVLTQSPVTLSLSSGETGTLSCRASQNISSSWIAWYQQRRGQVPRLLISAASARAAGIPDRFTGRGSGTDFTLTITRLEPEDFGVYSCQYYGGSFFTFGPGTQVDVKR
As to B7, the IC50, PSV assay is more than 500 nM in assay [12]; 0.11 nM in assay [3]; 0.2 nM in assay [6]; more than 500 nM in assay [13]; more than 500 nM in assay [8]; more than 500 nM in assay [14]. The same molecule displayed an IC50, PSV assay in assay [15] of more than 500 nM.

B8: bNAb5 (antibody, V domains shown)
VH: QLQMQESGPGLVKPSETLSLSCTVSGDSIRGGEWGDKDYHWGWVRHSAGKGLEWIGSIHWRGTTHYKESLRRRVSMSIDTSRNWFSLRLASVTAADTAVYFCARHRHHDVFMLVPIAGWFDVWGPGVQVTVSS
VL: EIVMTQSPDTLSVSPGETVTLSCRASQNINKNLAWYQYKPGQSPRLVIFETYSKIAAFPARFVASGSGTEFTLTINNMQSEDVAVYYCQQYEEWPRTFGQGTKVDIKR
Take B8: the IC50 (nM), PSV assay was 9.53 nM in assay [16]; 2.62 nM in assay [2]; 0.39 nM in assay [17]; 2.04 nM in assay [3]; 3300 nM in assay [18]; 0.64 nM in assay [19]. Also, the IC50 (nM), PSV assay is more than 500 nM in assay [20]; more than 500 nM in assay [5]; 58.2 nM in assay [21]; 8.1 nM in assay [22]; 57.1 nM in assay [23]; 51.4 nM in assay [24]. The IC50 (nM), PSV assay in assay [25] is 40.9 nM; in [6], 0.17 nM; in assay [26] it was 1.83 nM; in [8], more than 500 nM; in [27] it was 410 nM; in [28], 63.5 nM. Further, the IC50 (nM), PSV assay in [10] is more than 500 nM; in assay [29] it was 127 nM; in assay [11] it was 96.1 nM.

B9: bNAb14 (antibody, V domains shown)
VH: QLQLQESGPGLVKPSETLSLTCTVSGGSMRGTDWGENDFHYGWIRQSSAKGLEWIGSIHWRGRTTHYKTSFRSRATLSIDTSNNRFSLTFSFVTAADTAVYYCARHKYHDIFRVVPVAGWFDPWGQGLLVTVSS
VL: EIVMTQSPPTLSVSPGETATLSCRASQNVKNNLAWYQLKPGQAPRLLIFDASSRAGGIPDRFSGSGYGTDFTLTVNSVQSEDFGDYFCQQYEEWPRTFGQGTKVDIKR
Turning to B9, the IC50, PSV assay is more than 500 nM in assay [12]; 1.26 nM in [3]; 2.79 nM in assay [6]; more than 500 nM in assay [13]; more than 500 nM in [8]; more than 500 nM in [14]. In assay [15], this molecule registered an IC50, PSV assay of more than 500 nM.

Source of the values: patent US20250250328A1.
